In data set [1] the test system is NXF1ΔNΔUBA+3A;NXT1 (p15) (Homo sapiens;Homo sapiens). In words: ITC. (ITC needs no label: the signal is the heat of the interaction.)
Data set [2] deals with the molecule itself. The experiment in a line: crystal structure; crystals of the purified NXF1^ΔNΔUBA:NXT1 complex, 18°C, 9% PEG 6000, 1 M LiCl, 0.1 M Na citrate pH 5.1; P1, 3.4 Å, two copies of the complex in the asymmetric unit.

Molecule full-length CTE-RNA displayed a binding signal (fold weaker than wild type) in data set [1] of 2.5.

B1: NXF1^ΔNΔUBA:NXT1 complex (complex, human)
chain 1: VRRDRAPPERGGAGTSQDGTSKNWFKITIPYGRKYDKAWLLSMIQSKCSVPFTPIEFHYENTRAQFFVEDASTASALKAVNYKILDRENRRISIIINSSAPPHTILNELKPEQVEQLKLIMSKRYDGSQQALDLKGLRSDPDLVAQNIDVVLNRRSCMAATLRIIEENIPELLSLNLSNNRLYRLDDMSSIVQKAPNLKILNLSGNELKSERELDKIKGLKLEELWLDGNSLCDTFRDQSTYISAIRERFPKLLRLDGHELPPPIAFDVEAPTTLPPCKGSYFGTENLKSLVLHFLQQYYAIYDSGDRQGLLDAYHDGACCSLSIPFIPQNPARSSLAEYFKDSRNVKKLKDPTLRFRLLKHTRLNVVAFLNELPKTQHDVNSFVVDISAQTSTLLCFSVNGVFKEVDGKSRDSLRAFTRTFIAVPASNSGLCIVNDELFVRNASSEEIQRAFAMPAPTP
chain 2: ASVDFKTYVDQACRAAEEFVNVYYTTMDKRRRLLSRLYMGTATLVWNGNAVSGQESLSEFFEMLPSSEFQISVVDCQPVHDEATPSQTTVLVVICGSVKFEGNKQRDFNQNFILTAQASPSNTVWKIASDCFRFQDWAS
notes: also called NXF1:NXT1; TAP:p15
In general, stoichiometry N refers to a count of units in the complex or per binding partner. B1: in data set [2], the “stoichiometry N” value is 2.

Source of the values: article PMC4330390 (Nucleic Acids Research, 2015).
